In patent publication US20050096268A1 one finds RU bound and in vitro ID50 in the B9 proliferation assay data, which are given here for three substances.

Assay [1] has as its target human IL-13 (human) (UniProt P35225). Kind of assay: Biacore SPR; IL-11R-Ig immobilized, 100 ng/ml human IL-13 injected. (In general: SPR reads the build-up and loss of mass on a sensor chip optically.)
For assay [2] the target is unchanged. The experiment in a line: Biacore SPR; human IgG1 immobilized, 100 ng/ml human IL-13 injected.
The next assay deals with murine IL-13 (murine) (UniProt P20109). Kind of assay: cell-based or functional assay.
Chain of UniProt P20109 (P20109 21-131 limits assumed): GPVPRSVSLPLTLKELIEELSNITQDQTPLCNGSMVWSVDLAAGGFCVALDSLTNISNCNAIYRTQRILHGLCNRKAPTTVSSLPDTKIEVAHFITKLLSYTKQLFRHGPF

Chain of UniProt P35225 (P35225 35-146 limits assumed): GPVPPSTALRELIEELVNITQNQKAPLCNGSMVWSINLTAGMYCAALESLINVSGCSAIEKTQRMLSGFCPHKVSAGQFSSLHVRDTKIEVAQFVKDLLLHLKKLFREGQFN

IL-11R-Ig (Fc fusion) had an RU bound with human IL-13 (human) [1] of 3.7 RU.

human IgG1 (IgG control) (antibody) came in with an RU bound with human IL-13 (human) [2] of 5.4 RU.

The substance “soluble IL-13 receptor α2-Fc fusion protein (sIL-13Rα2-Fc) (from UniProt O88786 22-331)” registered an in vitro ID50 in the B9 proliferation assay with murine IL-13 (murine) of 10 ng/mL.
